According to patent WO2021228904A1 (dated 2021):

B1: SEQ ID NOs: 57/61 (HCVR/LCVR) (antibody, V domains shown)
VH: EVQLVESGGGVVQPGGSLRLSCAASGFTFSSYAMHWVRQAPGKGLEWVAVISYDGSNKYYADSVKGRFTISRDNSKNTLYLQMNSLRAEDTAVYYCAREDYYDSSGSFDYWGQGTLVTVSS
VL: QSVLTQPASVSGSPGQSITISCTGTSSDVGGYNYVSWYQQHPGKAPKLMIYDVSNRPSGVSNRFSGSKSGNTASLTISGLQAEDEADYYCSSYTSSSTRHWVFGGGTKLTVL
B2: SEQ ID NOs: 73/77 (HCVR/LCVR) (antibody, V domains shown)
VH: EVQLVESGGGLVQPGGSLRLSCAASGFTVTSTYMTWVRRAPGKGLEWVSIIYNDDTTYYADSVKDRVTVSRDDSKNTLYLQMNSLRAEDTAIYYCARGGYYYDPSGYYSRSFSFDYWGQGTLVTVSS
VL: NFMLTQPASVSGSPGQSITISCTGSSSDIAPYTFVSWYQQHSGTAPKLIIYDVRNRPSGISDRFSGSRSGNTASLSISGLQAEDEADYYCSAYTTTSTSWVFGGGTKLTVL
B3: 001_P1G11 (antibody, V domains shown)
VH: EVQLVQSGTEVKKPGASVKVSCKASGYTFPGYYIHWVRQAPGQGLEWMGWINPNSGVAKSAQKFQGRVTMTRDSSISTVYLDVTSDDTAVYYCARDLVWATVSGTMDVWGQGTTVTVSS
VL: QSALTQPPSASGSPGQSVTISCTGTSSDIGTYNYVSWYQQHPGKAPKLMIYEVTKRPSGVPDRFSGSKSGNTASLTVSGLQADDEGDYYCSSYVGNNNWVFGGGTKLTVL
B4: 002_P2C4 (antibody, V domains shown)
VH: QVQLVESGAEVKKPGSSVKVSCKASGGTFSSYGINWVRQAPGQGLEWMGGIIPIFGTANYAQKFQGRVTITTDESTSTAYMELSSLRSEDTAVYYCASFGDDSGDEGVRWGQGTLVTVSS
VL: EIVMTQSPATLSLSPGERATLSCRASQSVSSYLAWYQQKPGQAPRLLIYDASNRATGIPARFSGSGSGTDFTLTISSLEPEDFAVYYCQQRSNWPPYTFGQGTKVEIK
B5: SEQ ID NOs: 621/625 (HCVR/LCVR) (antibody, V domains shown)
VH: QVQLVQSGAEVKKPGASVKVSCKVSGYTLTELSMHWVRQAPGKGLEWMGGFDPEDGETIYAQKFQGRVTMTEDTSTDTAYMELSSLRSEDTAVYYCATAYSVDTAMVRGVGYWGQGTLVTVSS
VL: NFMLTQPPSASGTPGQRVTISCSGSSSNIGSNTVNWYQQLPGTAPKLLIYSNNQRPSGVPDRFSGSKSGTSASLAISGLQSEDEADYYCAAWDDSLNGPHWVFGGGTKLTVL
B6: SEQ ID NOs: 653/657 (HCVR/LCVR) (antibody, V domains shown)
VH: EVQLVESGGGLVQPGRSLRLSCAASGFTFDDYAMHWVRQAPGKGLEWVSGISWNSGSIGYADSVKGRFTISRDNAKNSLYLQMNSLRAEDTALYYCAKMGPDPAHDYGRKNDAFDIWGQGTMVTVSS
VL: DIVMTQSPSSLSASVGDRVTITCRASQSMSSYLNWYQQKPGKAPKLLIYAASSLQSGVPSRFSGSGSGTDFTLTISSLQPEDFATYYCQQSYSTLTFGGGTKLEIK
B7: SEQ ID NOs: 461/465 (HCVR/LCVR) (antibody, V domains shown)
VH: EVQLVESGAEVKKPGSSVKVSCKASGGTFSSYAISWVRQAPGQGLEWMGGIIPIFGTANYAQKFQGRATITTDESTSTAYMELSSLGSEDTAVYYCARTHSYDNSGQYFDYWGQGTMVTVSS
VL: DIVMTQSPATLSLSPGERATLSCRASQSVSSFLAWYQQKPGQAPRLLIYDASNRATGIPARFSGSGSGTDFTLTISSLEPEDFAVYYCQQRSNWPPRLTFGGGTKVDIK
B8: SEQ ID NOs: 493/497 (HCVR/LCVR) (antibody, V domains shown)
VH: EVQLVQSGAEVKKPGESLKISCKGSGYSFTSYWIDWVRQMPGKGLEWMGIFYPGDSDTRYSPSFQGQVTISADKSISTAYLQWSSLKASDTAMYYCARHNPDYYDSSGPLDYWGQGTLVTVSS
VL: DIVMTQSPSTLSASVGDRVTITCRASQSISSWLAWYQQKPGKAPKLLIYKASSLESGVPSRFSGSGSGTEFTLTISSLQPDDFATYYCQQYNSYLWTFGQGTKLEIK
B9: SEQ ID NOs: 557/561 (HCVR/LCVR) (antibody, V domains shown)
VH: EVQLVESGGGVVQPGRSLRLSCAASGFTFSSYAMHWVRQAPGKGLEWVAVISYDGSYKYYADSVKGRFTISRDNSKNTLYLQMNSLTAEDTAVYYCAREGSRQWLVIYFDYWGQGTLVTVSS
VL: AIRMTQSPSSLSASVGDRVTITCRASQSISSYLNWYQQKPGKAPKLLIYAASSLQSGVPSRFSGSGSGTDFTLTISSLQPEDFATYYCQQSYTTFIYTFGQGTKLEIK
B10: SEQ ID NOs: 421/425 (HCVR/LCVR) (antibody, V domains shown)
VH: EVQLVQSGAEVKKPGASVKVSCKASGYTFTSYDINWVRQATGQGLEWMGWMNPNSGNTGYAQKFQGRVTMTRNTSISTAYMELSSLRSEDTAVYYCARVVGSSWYPVDAFDIWGQGTRVTVSS
VL: QSVLTQPASVSGSPGQSITISCTGTSSDVGGYNYVSWYQQHPGKAPKLMIYDVSNRPSGVSNRFSGSKSGNTASLTISGLQAEDEADYYCSSYTSSSTLVVFGGGTKLTVL
B11: SEQ ID NOs: 217/221 (HCVR/LCVR) (antibody, V domains shown)
VH: EVQLVESGGGLVQPGGSLRLSCAASGFTFSSYDMHWVRQTTGKGLQWVSAIGTAGDTYYPGSVKGRFTISRENAKNSLYLQMNSLRAGDTAVYYCARGGDRYPVGYFDLWGRGTLVTVSS
VL: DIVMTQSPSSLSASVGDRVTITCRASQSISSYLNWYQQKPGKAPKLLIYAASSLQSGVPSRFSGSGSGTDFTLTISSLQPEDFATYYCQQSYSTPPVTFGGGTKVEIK
B12: SEQ ID NOs: 661/665 (HCVR/LCVR) (antibody, V domains shown)
VH: EVQLVESRAEMKKPGESLKISCKGSGYTFTNHWIAWVRQMPGKGLEWMGIIYPGDSDTRYSPSFEGQVTISADKSISTAYLQWSSLKASDTAMYYCARRGYTYGADFYGLDVWGQGTRVTVSS
VL: not shown

Target: SARS-CoV-2 receptor binding domain (RBD), amino acids 319-541, octahistidine tag (SARS-CoV-2, UniProt P0DTC2 319-541)
Test: not named there; ELISA in Example 4

Question: Does B1 bind?
Answer: Result: binds

Question: Does B2 bind?
Answer: Result: binds

Question: Does B3 bind?
Answer: Result: binds

Question: Does B4 bind?
Answer: Result: binds

Question: Does B5 bind?
Answer: Result: binds

Question: Does B6 bind?
Answer: Result: binds

Question: Does B7 bind?
Answer: Result: binds

Question: Does B8 bind?
Answer: Result: binds

Question: Does B9 bind?
Answer: Result: binds

Question: Does B10 bind?
Answer: Result: binds

Question: Does B11 bind?
Answer: Result: binds

Question: Does B12 bind?
Answer: Result: binds
